{
  "source": "the nanobody polyreactivity screen of Harvey et al. (2022)",
  "data": [
    {"experiment": "yeast display, Sf9 membrane polyspecificity reagent, FACS + sequencing; frameworks hold sequencing errors", "summary_of_the_method": "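After 36–48 hours of galactose induction, yeast (Saccharomyces cerevisiae BJ5465) displaying a synthetic nanobody library were stained at 4 °C for 1 hour with 10% biotinylated, detergent-solubilized Sf9 membrane reagent. Streptavidin microbeads enriched the stained cells before FACS sorting into low and high (top ~1%) gates on anti-HA and streptavidin fluorescence. Each clone's polyreactivity label reflects its gate of origin.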", "values": [
      {"sequence": "QVQLVESGGGLVQAGGSLRLSCAASGFILDYNAMGWYRQAPGKERELVAAITSGGSTNYADSVKGRFTISRDNAKNTVYLQMNSLKPEDTAVYYCNVRSVSPVHDDGSWGQGTQVTVSS", "polyreactivity (PSR sort gate)": "low polyreactivity"},
      {"sequence": "QVQLVESGGGLVQAGGSLRLSCAASGFILDYNAMGWYRQAPGKERELVATITGRGDRTYYADSVKGRFTISRDNAKNTVYLQMNSLKPEDTAVYYCAAGFDGSRHPGFDSWGQGTQVTVSS", "polyreactivity (PSR sort gate)": "low polyreactivity"},
      {"sequence": "QVQLVESGGGLVQAGGSLRLSCAASGFILDYYDMGWYRQAPGKERELVAGINYGGDSTYYADSVKGRFTISRDNAKNTVYLQMNSLKPEDTAVYYCAADLYFQYPEYDYWGQGTQVTVSS", "polyreactivity (PSR sort gate)": "low polyreactivity"},
      {"sequence": "QVQLVESGGGLVQAGGSLRLSCAASGFILERYAMGWYRQAPGKERELVAAISSVGNTNYADSVKGRFTISRDNAKNTVYFQMNSLKPEDTAVYYCAAEGAFPIYDYWGQGTQVTVSS", "polyreactivity (PSR sort gate)": "low polyreactivity"},
      {"sequence": "QVQLVESGGGLVQAGGSLRLSCAASGFILGSNVMGWYRQAPGKERELVAAISYSGGSTYYADSVKGRFTISRDNAKNTVYLQMNSLKPEDTAVYYCARRLTREYDYWGQGTQVTVSS", "polyreactivity (PSR sort gate)": "low polyreactivity"},
      {"sequence": "QVQLVESGGGLVQAGGSLRLSCAASGFILGYYAKGWSRQAPGKERELDAITSGDSTYYADSVKGRFTISRDTAKNTVYLQMNSLKPEDTAVYYCNAEASIERRYRGIIAVITRYDYWAQGTQVTVSS", "polyreactivity (PSR sort gate)": "high polyreactivity"},
      {"sequence": "QVQLVESGGGLVQAGGSLRLSCAASGFILLDYAMGWYRQAPGKERELVAAISWSGARTYYADSVKGRFTISRDNAKNTVYLQMNSLKPEDTAVYYCAAKGQRGYWWGFDYWGQGTQVTVSS", "polyreactivity (PSR sort gate)": "low polyreactivity"},
      {"sequence": "QVQLVESGGGLVQAGGSLRLSCAASGFILLDYAMRWYRQAPGKERELVAAISWSGARTYYADSVKGRFTISRDNAKNTVYLQMNSLKPEDTAVYYCATRYRWTPYDYWGQGTQVTVSS", "polyreactivity (PSR sort gate)": "low polyreactivity"},
      {"sequence": "QVQLVESGGGLVQAGGSLRLSCAASGFILPTYAMGWYRQAPGKEREFVAAIRTSTGATYYADSVKGRFTISRDIAKNTVYLQMTSLKPEDNAVYYFPADAPWSEWLWADIVGYEYWGQGTQVTVSS", "polyreactivity (PSR sort gate)": "low polyreactivity"},
      {"sequence": "QVQLVESGGGLVQAGGSLRLSCAASGFILRSYGMAWYRKAPGKERELVAAITRGGSTYYADSVKGRFTISRDNAKNTVYLQMNSLKAEDTAVYYCAARTRYYSQQFDYWGQGTQVTVSS", "polyreactivity (PSR sort gate)": "high polyreactivity"},
      {"sequence": "QVQLVESGGGLVQAGGSLRLSCAASGFILRWYAMGWYRQAPGKERELVAAISWSGGSTYYADSVKGRFTISRDNAKNTVYLQMNSLKPEDTAVYYCNAVNYRNKYDYWGQGTQVTVSS", "polyreactivity (PSR sort gate)": "high polyreactivity"},
      {"sequence": "QVQLVESGGGLVQAGGSLRLSCAASGFILRYYAMGWYRQAPGKERELVAAISSGGGTYYADSVKGRFTISRDNAKNTVYLQMNSLKPEDTAVYYCAADYWGLWHWLYTDDDGDYWGQGTQVTVSS", "polyreactivity (PSR sort gate)": "high polyreactivity"},
      {"sequence": "QVQLVESGGGLVQAGGSLRLSCAASGFILSGYAMGWYRQAPGKERELVAVISGGGRTYYADSVKGRFTISRDNAKNTVYLQMNSLKPEDTAVYYCARPRTRQGDYWGQGTQVTVSS", "polyreactivity (PSR sort gate)": "high polyreactivity"},
      {"sequence": "QVQLVESGGGLVQAGGSLRLSCAASGFILSPNTMGWYRQAPGKERELVAAISSDVSTYADSVKGRFTISRDNAKNTVYLQMNSLKPEDTAVYYCNADDFGYASYEYWGQGTQVTVSS", "polyreactivity (PSR sort gate)": "low polyreactivity"},
      {"sequence": "QVQLVESGGGLVQAGGSLRLSCAASGFILSWYAMGWYRQAPGKERELVAGISRRGGSTYYADSVTGRFTISRDNAKNTVYLQMNSLKPEDTAVYYCNALYDDWSVSTGDYWGQGTQVTVSS", "polyreactivity (PSR sort gate)": "high polyreactivity"},
      {"sequence": "QVQLVESGGGLVQAGGSLRLSCAASGFILWPYAMGWYRQEPGKERELVAAITTGGSTNYADSVKGRFTISRDNAKNTVYLQMNSLKPEDTAVYYCAKGYYFGYYEFDYWGQGTQVTVSS", "polyreactivity (PSR sort gate)": "high polyreactivity"},
      {"sequence": "QVQLVESGGGLVQAGGSLRLSCAASGFILYYYAMGWYRQAPGIERELVAAISWSGDSTYYADSVKGRFTISRDNAKNTVYLQMNSLKPEDTAVYYCAATGQLTHRYYWGQGTQVTVSS", "polyreactivity (PSR sort gate)": "low polyreactivity"},
      {"sequence": "QVQLVESGGGLVQAGGSLRLSCAASGFIRYYAMGWYRNAHGKERELVAAITATGASTYYADSVKGRFTISRDNAKNTVYLQMNSLKPEDTAVYYCIVRLRISSGYWGQGTQVTVSS", "polyreactivity (PSR sort gate)": "high polyreactivity"},
      {"sequence": "QVQLVESGGGLVQAGGSLRLSCAASGFISGKYAMGWNRQAPGKERELVATIRSGGSTNYADSVKGRFTISRDNAKNTVYLQMNSLKPEDTAVYYCAKRRGSRGVIYDYWGQGTQVTVSS", "polyreactivity (PSR sort gate)": "high polyreactivity"},
      {"sequence": "QVQLVESGGGLVQAGGSLRLSCAASGFISGYYTMRWYRQAPGKERELVAVINSGGSTYYADSVKGRFTISRDNAKNTVYLQMNSLKPEDTAVYYCAKLGGKYSRYYYWGQGTQVTVSS", "polyreactivity (PSR sort gate)": "low polyreactivity"},
      {"sequence": "QVQLVESGGGLVQAGGSLRLSCAASGFISNGYAMGWYRQAPGKEREFVASISSSGGSTYYADSVKGRFTISRDIAKNTVYLQMNSLKTEDTAVYYCNARYWWVIKVKLGYWGQGTQVTVSS", "polyreactivity (PSR sort gate)": "low polyreactivity"},
      {"sequence": "QVQLVESGGGLVQAGGSLRLSCAASGFISSENAMGWYRQAPGKERELVAAISSGGSTNYADSVKGRFTISRDNAKNTVYLQMNSIKREDTAVYYCAATLPGWYNEDDSWGQGTQVTVSS", "polyreactivity (PSR sort gate)": "low polyreactivity"},
      {"sequence": "QVQLVESGGGLVQAGGSLRLSCAASGFISYENAMGWYRQAPGKERELVAAISSGGSTNYADSVKGRFTISRDNAKNTVYFQMNSLKPEDTAVYYCAATLPGWYNEDDSWGQGTQVTVSS", "polyreactivity (PSR sort gate)": "low polyreactivity"},
      {"sequence": "QVQLVESGGGLVQAGGSLRLSCAASGFISYFYTMGWYRPAPGKERELVAAISNTGDRTYYADSVKGRFTISRDNAKNTVYLQMNSLKPEDTAVYYCNAVVRGTYWQSFDYWGQGTQVTVSS", "polyreactivity (PSR sort gate)": "high polyreactivity"},
      {"sequence": "QVQLVESGGGLVQAGGSLRLSCAASGFIVHTNTMGWYIQAPGKERELVAAMSSGGRTNYADSVKGRFTISRDNAKNTVYLQMNSLKPEDTAVYYCAADWHSWRWGYYYWGQGTQVTVSS", "polyreactivity (PSR sort gate)": "low polyreactivity"},
      {"sequence": "QVQLVESGGGLVQAGGSLRLSCAASGFIVKRYARGWYRQAPGKERELVAAITSSGGRTYYADSVKGRFTISRDTAKNTVYLQMNSLKPEDTAVYYCAKGWSTYYTKMNYWGQGTQVTVSS", "polyreactivity (PSR sort gate)": "high polyreactivity"},
      {"sequence": "QVQLVESGGGLVQAGGSLRLSCAASGFIYGFYVMGWYRQAPGKERELVAAITTSGDSTYYADSVKGRFTISRDNAKNTVFLQMNSLKPEDTAVYYCAADNVHSEYEYWGQGTQVTVSS", "polyreactivity (PSR sort gate)": "high polyreactivity"},
      {"sequence": "QVQLVESGGGLVQAGGSLRLSCAASGFIYGTYAMGWYRQAPGKEREFVAAITRSGSSTYYADSVKGRFTISRDNAKNTVYLLMNSLKPEDTAVYYCAADLTRGRFRYYYWGLGTQVTVSS", "polyreactivity (PSR sort gate)": "high polyreactivity"},
      {"sequence": "QVQLVESGGGLVQAGGSLRLSCAASGFIYHNAMGWYRQAPGKERELVARITWSGGSTSYADSVKGRFTISRDNAKNTVYLQMTSLKPEETAVYYCAARGVVYRYGASRGYWGQGTQVTVSS", "polyreactivity (PSR sort gate)": "high polyreactivity"},
      {"sequence": "QVQLVESGGGLVQAGGSLRLSCAASGFLFGWNAMGGYRQAPGKERELVAAISARGGSTSYADSVKGRFTISRDTAKNTVYLQMNSLKPEDTAVYYCSAKSAFPLDYWGQGTQVTVSS", "polyreactivity (PSR sort gate)": "high polyreactivity"},
      {"sequence": "QVQLVESGGGLVQAGGSLRLSCAASGFLFVVYTMGWYRQAPGKERELVAAITSGGSTYYADSVKGRFTISRDNAKNTVYLQMNSLKPEDTAVYYCNALASRYPAYYYWGQGTQVTVSS", "polyreactivity (PSR sort gate)": "low polyreactivity"},
      {"sequence": "QVQLVESGGGLVQAGGSLRLSCAASGFNFADNAMGWYRQAPGKEREFVAAISRSGGTTYYADSVKGRFTISRDNAKNTVYLQMNSLKPEDTAVYYCATRLTSYPDYDYWGQGTQVTLSS", "polyreactivity (PSR sort gate)": "low polyreactivity"},
      {"sequence": "QVQLVESGGGLVQAGGSLRLSCAASGFNFASYAMGWYRQAPGKERELVAAISWRGGSTYYADSVKGRFTISRDNAKNTVYLQMNSLKPEDTAVYYCNAYVYVGTGRGYDTLDYWGQGTQVTLSS", "polyreactivity (PSR sort gate)": "low polyreactivity"},
      {"sequence": "QVQLVESGGGLVQAGGSLRLSCAASGFNFDGNALGWYRPAPGKERELVAAIRSGGRTNYADSVKGRFTISRDNAKNTVYLQMNSLKPEDTAVYYCAARSIYPYYYRRDNRYYYWGQGTQVTVSS", "polyreactivity (PSR sort gate)": "high polyreactivity"},
      {"sequence": "QVQLVESGGGLVQAGGSLRLSCAASGFNFGCYCMGWYIQAPGKERELVAAITWSGVRTYYADSVKGRFTISRDNAKNTVYLQMNSLKPEDTAVYYCAASGEGGYLENNEFDYWGQGTQVTVSS", "polyreactivity (PSR sort gate)": "low polyreactivity"},
      {"sequence": "QVQLVESGGGLVQAGGSLRLSCAASGFNFGGYAMGWYRQAPGKERELVARITRSGGSTYYADSVKGRFTISRDNAKNTVYLQMNSLKPEDTAVYYCNADTPPNPYYYWGQGTQVTVSS", "polyreactivity (PSR sort gate)": "low polyreactivity"},
      {"sequence": "QVQLVESGGGLVQAGGSLRLSCAASGFNFGINAMGWYRQAPGKEREWVAAINQSGDRTYYADSVKGRFTISRDNAKNTVYLQMNSLNPEDTEVYYCASLSTYRTWYGDWGQGTQVTVSS", "polyreactivity (PSR sort gate)": "high polyreactivity"},
      {"sequence": "QVQLVESGGGLVQAGGSLRLSCAASGFNFGWYAMGWYRQAPGKERELVAAISGRGGSTNYADSVKGRFTISRDNAKNTVYLQMNSLKPEDTAVYYCNAALSPWGNNYWGQGTQVSVSS", "polyreactivity (PSR sort gate)": "high polyreactivity"},
      {"sequence": "QVQLVESGGGLVQAGGSLRLSCAASGFNFSYNAMGWYRQAPGKERELTYADSVKGRFTISRDNAKNTVYLQMNSLKLEDTAVYYCAAGEYGRQYDGDYWGQGTQVTVSS", "polyreactivity (PSR sort gate)": "low polyreactivity"},
      {"sequence": "QVQLVESGGGLVQAGGSLRLSCAASGFRLNAMGWYRQAPGKERELVAAITASGGSTYYADSVKGRFTISRDNAKNTVYLQMNSQKPEDTAVYYCARYHPVRGYNYWGQGTQVTVSS", "polyreactivity (PSR sort gate)": "high polyreactivity"},
      {"sequence": "QVQLVESGGGLVQAGGSLRLSCAASGFSFDSNAMGWYRQAPGKERELVAVITSSGGRTYYADSVKGRFTISRDNAKNTVYLQMNSLKPEDTAVYYCAAAKKFFWYEYDYWGQGTQVSVSS", "polyreactivity (PSR sort gate)": "high polyreactivity"},
      {"sequence": "QVQLVESGGGLVQAGGSLRLSCAASGFSFRYYAMGWYRQAPGKERELVAAISSGGNTRYADSVKGRFTISRDNAKNTVYLQMNSLKPEDTAVYYCARRPGAWKYVYTGDYWGQGTQVTVSS", "polyreactivity (PSR sort gate)": "high polyreactivity"},
      {"sequence": "QVQLVESGGGLVQAGGSLRLSCAASGFSFSRNTMGWYRQAPGKDRELVATIDRGGRTNYADSVKGRFTISRDNAKNTVYLQMNSLKPEDTAVFYCNAYWRRFPQYDYWGLGTQVTVSS", "polyreactivity (PSR sort gate)": "high polyreactivity"}
    ]}
  ]
}
